# According to the supplement of paper PMC7125110:
# ± gives the standard error. This sample holds only a part of the variants without activity.
# B1: glmS ribozyme (parent)
# chain: AUAAAAGCGCCAGAACUACAGAAAUGUAGUUGACGAGGAGGAGGUUUAUCGAAUUUUCGGCGGAUGCCUCCAAA
# Experiments:
# Settings in all cases: with glucosamine-6-phosphate
# glucosamine-6-phosphate [1] = variants of: B1; test: self-cleavage kobs at 40 uM GlcN6P; higher = faster cleavage; RNA array
# How it was run: (§1)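 E. coli RNA polymerase transcribed barcoded ribozyme variants in situ on sequenced MiSeq chips, which were tracked via a hybridised Cy3 probe at 37 °C. Tiles were imaged over ~14 h after glucosamine-6-phosphate (40 μM to 10 mM) in HEPES/KCl/Mg(OAc)2 buffer was flowed in. Normalised per-tile medians were fit to one- or two-exponential decays for kobs, and kcat and KM came from weighted Michaelis–Menten fits.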
# glucosamine-6-phosphate [2] = variants of: B1; test: self-cleavage kobs at 160 uM GlcN6P; higher = faster cleavage; RNA array
# How it was run: as §1
# glucosamine-6-phosphate [3] = variants of: B1; test: self-cleavage kobs at 2500 uM GlcN6P; higher = faster cleavage; RNA array
# How it was run: as §1
# glucosamine-6-phosphate [4] = variants of: B1; test: self-cleavage kobs at 10000 uM GlcN6P; higher = faster cleavage; RNA array
# How it was run: as §1
# glucosamine-6-phosphate [5] = variants of: B1; test: self-cleavage kobs at 640 uM GlcN6P; higher = faster cleavage; RNA array
# How it was run: as §1
Variant,self-cleavage kobs at 40 uM GlcN6P (glucosamine-6-phosphate [1]) [s⁻¹],self-cleavage kobs at 160 uM GlcN6P (glucosamine-6-phosphate [2]) [s⁻¹],self-cleavage kobs at 2500 uM GlcN6P (glucosamine-6-phosphate [3]) [s⁻¹],self-cleavage kobs at 10000 uM GlcN6P (glucosamine-6-phosphate [4]) [s⁻¹],self-cleavage kobs at 640 uM GlcN6P (glucosamine-6-phosphate [5]) [s⁻¹]
A6U C34G,< 1e-05,< 1e-05,< 1e-05,< 1e-05,
A12U A14G C68U,0.000526 ± 0.0001,,,,
G7A G32A G51A G62C C68A,< 1e-05,< 1e-05,,,
C8G G32A G59U,< 1e-05,,< 1e-05,< 1e-05,
A6U U31C C50G,7.08e-05 ± 1.6e-05,,,3.4e-05 ± 1.4e-05,
A42U U65A,< 1e-05,< 1e-05,,4.89e-05 ± 1.2e-05,
A15C A36G,< 1e-05,< 1e-05,< 1e-05,< 1e-05,< 1e-05
G40U G59U U69C C71U,< 1e-05,,< 1e-05,,
A33U C34U G60C C68U,< 1e-05,,< 1e-05,,
G7U G29C,< 1e-05,< 1e-05,< 1e-05,< 1e-05,< 1e-05
A6G C50G A53G C58U,0.000224 ± 9.8e-05,,,,
G43C A52C U54G,< 1e-05,,,< 1e-05,< 1e-05
A12U U30G G51C,< 1e-05,,< 1e-05,,< 1e-05
U49C G66A,< 1e-05,,,< 1e-05,
G44U G51C,< 1e-05,< 1e-05,< 1e-05,< 1e-05,< 1e-05
A33U G62C,< 1e-05,,,,< 1e-05
C11G C68A,< 1e-05,,,,
G29A A48G,< 1e-05,< 1e-05,,,< 1e-05
G7C G63C C68G U69A,< 1e-05,,,< 1e-05,
G9C C34A A42U G43A,< 1e-05,,,,
G41U G60U A64U,< 1e-05,< 1e-05,,< 1e-05,
A33C C50G C71U,0.000772 ± 0.00027,,0.000589 ± 0.00017,5.96e-05 ± 2.9e-05,0.000204 ± 5.8e-05
G9A G41U U56G,< 1e-05,< 1e-05,,< 1e-05,< 1e-05
A15G C34A G62U,< 1e-05,,,< 1e-05,
A14U G29U G44U U56A,< 1e-05,,,,

Variant,self-cleavage kobs at 40 uM GlcN6P (glucosamine-6-phosphate [1]) [s⁻¹],self-cleavage kobs at 160 uM GlcN6P (glucosamine-6-phosphate [2]) [s⁻¹],self-cleavage kobs at 2500 uM GlcN6P (glucosamine-6-phosphate [3]) [s⁻¹],self-cleavage kobs at 10000 uM GlcN6P (glucosamine-6-phosphate [4]) [s⁻¹],self-cleavage kobs at 640 uM GlcN6P (glucosamine-6-phosphate [5]) [s⁻¹]
A6G G35A C67U U69A,< 1e-05,< 1e-05,< 1e-05,< 1e-05,< 1e-05
G32U A42U C58U,< 1e-05,,,3.73e-05 ± 1.3e-05,
C34U G51U U54C U57G,< 1e-05,,< 1e-05,,
C8G U31C C71A,< 1e-05,,,,
G9A C71G,< 1e-05,< 1e-05,< 1e-05,< 1e-05,< 1e-05
A15U C61G,< 1e-05,,,< 1e-05,
A42U G51C,< 1e-05,< 1e-05,,,< 1e-05
A6U A36G,< 1e-05,< 1e-05,,< 1e-05,< 1e-05
G29U A36C A39C,< 1e-05,,,< 1e-05,
U31C G32C G35A G59U G66U C71U,< 1e-05,,< 1e-05,< 1e-05,
A36C G44A,< 1e-05,< 1e-05,< 1e-05,< 1e-05,< 1e-05
G7C U30G G35U G37U U57C C71G,< 1e-05,,,< 1e-05,
A14U U45G G62C,< 1e-05,,,< 1e-05,
U31C A33C A36G C71G,< 1e-05,,,,
U30A A33U U56C,< 1e-05,,,,
A6C G13C G29U C70G,< 1e-05,,,,
G7C A33G A53U A64G,< 1e-05,,,,< 1e-05
A14G G32A U49A,< 1e-05,,,,
U31A A64C,< 1e-05,,,4.57e-05 ± 1e-05,
G38A U46C A53C U54C C68A,< 1e-05,,,< 1e-05,
A14U U54A G59C,< 1e-05,,,< 1e-05,
U56A C67U,0.000175 ± 1.9e-05,0.000452 ± 6.1e-05,0.00474 ± 0.00085,0.00679 ± 0.0012,0.000938 ± 8.9e-05
G7U U31C G59U,< 1e-05,,,,
G29C U56A,4.47e-05 ± 1.2e-05,2.63e-05 ± 1.3e-05,0.000439 ± 8.7e-05,0.00136 ± 0.00016,0.000209 ± 3.6e-05
G60U G63A C67U,< 1e-05,,,,

Variant,self-cleavage kobs at 40 uM GlcN6P (glucosamine-6-phosphate [1]) [s⁻¹],self-cleavage kobs at 160 uM GlcN6P (glucosamine-6-phosphate [2]) [s⁻¹],self-cleavage kobs at 2500 uM GlcN6P (glucosamine-6-phosphate [3]) [s⁻¹],self-cleavage kobs at 10000 uM GlcN6P (glucosamine-6-phosphate [4]) [s⁻¹],self-cleavage kobs at 640 uM GlcN6P (glucosamine-6-phosphate [5]) [s⁻¹]
C34U G41A C68A,< 1e-05,,,< 1e-05,
G37C U54A U55C G63C U69G,< 1e-05,,,< 1e-05,
C16G C34G C50A A64G,< 1e-05,,,,
C34A G41A U65G,< 1e-05,,,,
G35U G62A,< 1e-05,< 1e-05,< 1e-05,< 1e-05,< 1e-05
G60C U65G,< 1e-05,< 1e-05,,< 1e-05,< 1e-05
G9C G37U,< 1e-05,< 1e-05,< 1e-05,,< 1e-05
A6G U31C G41U A52U,< 1e-05,,,< 1e-05,
A42G U57A G66U,< 1e-05,,,,
C8G C71A,< 1e-05,< 1e-05,< 1e-05,,< 1e-05
G9C U65A,< 1e-05,,< 1e-05,,
A6U A33G G41A A64U,< 1e-05,< 1e-05,< 1e-05,,< 1e-05
A6C C11U,< 1e-05,< 1e-05,,,< 1e-05
A12C G35U U47C A48U,< 1e-05,,,< 1e-05,< 1e-05
A15C G29C U30C U31G G38C G60A U69G,< 1e-05,,,,
G35U C50U C67G,0.000272 ± 0.0001,,,,
U49A C50G C68G,9.07e-05 ± 3.4e-05,,,,
C8U C16U A52G,< 1e-05,,,,
G7U C8G U47G C58U C61G U69G,0.000436 ± 0.00012,,,0.000464 ± 0.00012,
G44C C67U C68U,< 1e-05,< 1e-05,,,
A33C G51A G66A C70G,< 1e-05,,,,
C8U A64C,< 1e-05,< 1e-05,< 1e-05,,< 1e-05
A53C G62A,< 1e-05,,,< 1e-05,
G60U G62U,< 1e-05,< 1e-05,< 1e-05,< 1e-05,< 1e-05
G7C U49A,< 1e-05,< 1e-05,< 1e-05,< 1e-05,

Variant,self-cleavage kobs at 40 uM GlcN6P (glucosamine-6-phosphate [1]) [s⁻¹],self-cleavage kobs at 160 uM GlcN6P (glucosamine-6-phosphate [2]) [s⁻¹],self-cleavage kobs at 2500 uM GlcN6P (glucosamine-6-phosphate [3]) [s⁻¹],self-cleavage kobs at 10000 uM GlcN6P (glucosamine-6-phosphate [4]) [s⁻¹],self-cleavage kobs at 640 uM GlcN6P (glucosamine-6-phosphate [5]) [s⁻¹]
G38A A42U G44U A48G,< 1e-05,,,,
U2A A3U C50A,< 1e-05,,,3.38e-05 ± 1.2e-05,
C11U C50A C70G,9.07e-05 ± 2.5e-05,,0.000173 ± 6e-05,5.4e-05 ± 1.6e-05,0.000365 ± 8.8e-05
C11U G29C C34A G37U,< 1e-05,,,,< 1e-05
C34G C50G G59A C67G,3.78e-05 ± 1.8e-05,0.000158 ± 3.7e-05,0.000115 ± 2.3e-05,,
G35U U54C U55A G59C,< 1e-05,,,< 1e-05,
G35U G37A,< 1e-05,,< 1e-05,,< 1e-05
G7C G32U C34A G35C,< 1e-05,,,,
A48C C61A,< 1e-05,,,< 1e-05,< 1e-05
G38C U55A G63U,< 1e-05,,< 1e-05,,< 1e-05
G13C A48C,< 1e-05,< 1e-05,< 1e-05,< 1e-05,
A14G G44C C61A C68G,< 1e-05,,,,
U54C U56A,0.000356 ± 6.9e-05,0.000584 ± 0.00011,0.00483 ± 0.00092,0.0163 ± 0.0038,0.00291 ± 0.00036
U31G A48U,< 1e-05,,8.46e-05 ± 1.6e-05,5.93e-05 ± 2.1e-05,
C11G A15C,< 1e-05,< 1e-05,< 1e-05,,< 1e-05
C10A G38U,< 1e-05,< 1e-05,,,< 1e-05
G38A G44C U47A,< 1e-05,,,< 1e-05,
A15C A33U,< 1e-05,< 1e-05,,,
A6G A12C U45G C58U G59C G62A C68G,< 1e-05,,,< 1e-05,
C34G G43C,< 1e-05,< 1e-05,< 1e-05,,< 1e-05
G7U U30G,< 1e-05,< 1e-05,,< 1e-05,
U31G G44A,< 1e-05,,5.95e-05 ± 2.1e-05,9.7e-05 ± 2.6e-05,
G26U C50G A52C U56G G66C C67U C71U,0.000243 ± 7.9e-05,,,0.000101 ± 2.7e-05,0.000548 ± 0.00021
U54G G62C U69C,< 1e-05,,,< 1e-05,
G13U U45G,< 1e-05,,8.28e-05 ± 2e-05,0.000133 ± 1.8e-05,
